Four molecules from PMC11624207, “Human PC4 supports telomere stability and viability in cells utilizing the alternative lengthening of telomeres mechanism” can be followed below.

This data set has as its target PC4wt (His-tagged) (human, UniProt P53999 1-127). In words: EMSA; EMSA: 50 mM HEPES pH 8, 1 mM DTT, 100 mM NaCl, 0.01% BSA, 2% glycerol; 20 min on ice then 10 min at 25 C; native 8% PAGE, 0.5x TBE, 4 C. The following applies: protein: recombinant, tags: N-terminal 6xHis, chain copies: 2, label: 5'-32P, single strand. Background: Mobility shift assays separate free from complexed probe on a gel.

B1: telomeric C-rich (CCCTAA)5 (ssDNA)
DNA: CCCTAACCCTAACCCTAACCCTAACCCTAA
For the molecule B1, the binding result was “binds”.

B2: mutant telomeric G-rich (TTACGG)5 (ssDNA)
DNA: TTACGGTTACGGTTACGGTTACGGTTACGG
B2: for the setting “unable to form G4”, the binding result is recorded as “binds”.

B3: unrelated oligonucleotide (ssDNA)
DNA: GGACTCTAGCGTGGATCCTTAAGCTAGAAT
On to B3, for which the binding result was “binds”.

B4: telomeric G-rich (TTAGGG)5 (ssDNA)
DNA: TTAGGGTTAGGGTTAGGGTTAGGGTTAGGG
Consider B4, for which, where the note is “G4-capable”, the binding result is “binds”.
